Data published in patent publication US20170275359A1 (Genentech, published 2017).

Columns and labels:
murine EphrinB2-His = target: T1, murine EphrinB2-His (murine, UniProt P52800 29-232, limits assumed); test: SPR BIAcore-3000, antibody coupled to CM5 chip (~500 RU), EphrinB2-His injected, 25 C
T1 construct: Soluble His-tagged protein; also called His-tagged murine EphrinB2; murine antigen; not shown: His tag
Experimental: (§1) To determine the binding affinity of mouse anti-ephrinB2 Mabs, surface plasmon resonance (SRP) measurement with a BIAcore™-3000 was used (BIAcore, Inc., Piscataway, N.J.). Briefly, carboxymethylated dextran biosensor chips (CMS, BIAcore Inc.) were activated with N-ethyl-N′- (3-dimethylaminopropyl)-carbodiimide hydrochloride (EDC) and N-hydroxysuccinimide (NHS) according to the supplier's instructions. Anti-EphrinB2 antibody was diluted with 10 mM sodium acetate, pH 4.8, into 5 ug/ml before injection at a flow rate of 5 ul/minute to achieve approximately 500 response units (RU) of coupled antibody. Next, 1M ethanolamine was injected to block unreacted groups. For kinetics measurements, two-fold serial dilutions of either human or murine EphrinB2-His molecules (0.7 nM to 500 nM) were injected in PBS with 0.05% Tween 20 at 25° C. at a flow rate of 25 ul/min. Association rates (kₒₙ) and dissociation rates (koff) were calculated using a simple one-to-one Langmuir binding model (BlAcore Evaluation Software version 3.2). The equilibrium dissociation constant (Kd) was calculated as the ratio koff/kₒₙ. “NA” signifies that the measurement was not performed.

human EphrinB2-His = target: T2, human EphrinB2-His (human, UniProt P52799 28-229, limits assumed); test: as above
T2 construct: Soluble His-tagged protein; also called His-tagged human EphrinB2; hEphrinB2; not shown: His tag
Experimental: as §1

T2 sequence (P52799 28-229 limits assumed): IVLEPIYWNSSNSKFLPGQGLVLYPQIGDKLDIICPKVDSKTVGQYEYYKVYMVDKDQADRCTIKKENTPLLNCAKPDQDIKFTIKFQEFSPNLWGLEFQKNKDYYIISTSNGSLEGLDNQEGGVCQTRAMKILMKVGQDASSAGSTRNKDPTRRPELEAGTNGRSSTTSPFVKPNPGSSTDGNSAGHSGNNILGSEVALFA
T1 sequence (P52800 29-232 limits assumed): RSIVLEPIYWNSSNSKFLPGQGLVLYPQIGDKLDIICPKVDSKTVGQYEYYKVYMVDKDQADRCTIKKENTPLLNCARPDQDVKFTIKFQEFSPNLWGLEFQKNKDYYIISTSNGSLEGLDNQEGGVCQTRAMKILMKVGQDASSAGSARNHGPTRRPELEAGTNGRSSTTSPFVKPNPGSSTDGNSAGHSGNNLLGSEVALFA

| Binder | Kd (murine EphrinB2-His) | Kd (human EphrinB2-His) |
| --- | --- | --- |
| anti-EphrinB2 monoclonal antibody clone 31.19 (antibody, V domains shown, Synthetic phage antibody on the humanized 4D5 framework; also called YW31.19; 31.19 antibody) VH: EVQLVESGGGLVQPGGSLRLSCAASGFTITGSWIHWVRQAPGKGLEWVAVIYPNNGATDYADSVKGRFTISADTSKNTAYLQMNSLRAEDTAVYYCARTSAWAQLGAMDYWGQGTLVT VL: DIQMTQSPSSLSASVGDRVTITCRASQDVSTAVAWYQQKPGKAPKLLIYSASFLYSGVPSRFSGSGSGTDFTLTISSLQPEDFATYYCQQSYTTPPTFGQGTKVEIKR | 230 pM | 5200 pM |
| anti-EphrinB2 monoclonal antibody clone 31.19.1D8 (antibody, V domains shown, also called YW31.19.1D8; 31.19.1D8 antibody) VH: EVQLVESGGGLVQPGGSLRLSCAASGFTITGSWIHWVRQAPGKGLEWVAVIYPNNGATDYADSVKGRFTISADTSKNTAYLQMNSLRAEDTAVYYCARTSAWAQLGAMDYWGQGTLVT VL: DIQMTQSPSSLSASVGDRVTITCRASQDVDSSLAWYQQKPGKAPKLLIYAASNLESGVPSRFSGSGSGTDFTLTISSLQPEDFATYYCQQSDDNPFTFGQGTKVEIKR | 17 pM | 70 pM |
| anti-EphrinB2 monoclonal antibody clone 31.19.2D3 (antibody, V domains shown, also called YW31.19.2D3; 31.19.2D3 antibody) VH: EVQLVESGGGLVQPGGSLRLSCAASGFTVSSGWIHWVRQAPGKGLEWVAVIFHNKGGTDYADSVKGRFTISADTSKNTAYLQMNSLRAEDTAVYYCARTSAWAQLGAMDYWGQGTLVT VL: DIQMTQSPSSLSASVGDRVTITCRASQDVSTAVAWYQQKPGKAPKLLIYSASFLYSGVPSRFSGSGSGTDFTLTISSLQPEDFATYYCEQTDSTPPTFGQGTKVEIKR | 15 pM | 80 pM |
